According to publication PMC3265607 (Journal of Molecular Biology, 2011):

T1: ceNXT1 (residues 2-137), His6, pETDuet-1 construct for structural studies (Caenorhabditis elegans, UniProt Q9U757 2-137, SeMet-labeled (selenomethionine))
T1 sequence (looked up): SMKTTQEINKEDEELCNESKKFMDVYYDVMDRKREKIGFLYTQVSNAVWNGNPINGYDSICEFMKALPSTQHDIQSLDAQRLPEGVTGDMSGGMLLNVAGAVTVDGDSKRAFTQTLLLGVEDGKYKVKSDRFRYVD


Experiments:
[1] = molecular target: ceNXT1, His6, pET28b construct for pull-down assays (Caenorhabditis elegans) (UniProt Q9U757); assay: SEC
[2] = molecular target: T1, ceNXT1 (residues 2-137), His6, …; assay: SEC

| Molecule | stoichiometry N [1] | stoichiometry N [2] |
| --- | --- | --- |
| ceNXF1(NTF2) (from UniProt Q9XVS7 352-539) (domain or fragment) | 1 | – |
| ceNXF2(NTF2) (domain or fragment, Caenorhabditis elegans, UniProt Q9XVS8 202-405, looked up) FRNGYYGSDEVRTLVEEFIITYYKIYDGADGQQTRKQLLDAYDTNNSTFTHTVVCLWDPIKFVMYPDSESYRMYLRTSHNVLNQEYFAANRASRISHGAMDIVVALSRLPATIHLMDTFVVDVFLVSATLLGFTLHGTFRDGPSAIKPENTEEHDNYFTRTFMVAPRGEGKVAIVSDQLFISSMSKRRGDQYRMLVETATDIDQ | – | 1 |
